Source: patent US20240294644A1 (BLUEFIN BIOMEDICINE, published 2024)

T1: cynomolgus monkey VTCN1 protein (cynomolgus monkey, UniProt A0A2K5U6P5 25-259)
T1 construct: The construct and its tag are not described; also called cyno VTCN1
T1 sequence: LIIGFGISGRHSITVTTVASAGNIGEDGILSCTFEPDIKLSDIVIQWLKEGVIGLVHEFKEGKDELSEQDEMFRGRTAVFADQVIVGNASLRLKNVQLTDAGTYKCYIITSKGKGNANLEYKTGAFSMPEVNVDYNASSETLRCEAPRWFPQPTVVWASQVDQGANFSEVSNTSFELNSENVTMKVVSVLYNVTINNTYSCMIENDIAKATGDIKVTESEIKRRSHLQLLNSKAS

T2: recombinant human VTCN1-his protein (human, UniProt Q7Z7D3 25-259, limits assumed)
T2 construct: also called human VTCN1 protein; recombinant VTCN1
T2 sequence: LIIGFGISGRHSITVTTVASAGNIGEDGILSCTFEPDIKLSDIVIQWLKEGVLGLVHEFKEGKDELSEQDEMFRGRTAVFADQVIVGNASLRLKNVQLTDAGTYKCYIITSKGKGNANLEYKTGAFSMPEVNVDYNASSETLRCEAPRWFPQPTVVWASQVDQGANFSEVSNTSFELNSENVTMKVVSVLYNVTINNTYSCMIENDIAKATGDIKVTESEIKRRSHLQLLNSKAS

T3: human VTCN1 expressed on cells (293-VTCN1 cells; SKBR3, MX-1 and ZR-75-1 cells that express it naturally) (human, UniProt Q7Z7D3 25-282)
T3 construct: The cDNA was bought from Origene
T3 sequence: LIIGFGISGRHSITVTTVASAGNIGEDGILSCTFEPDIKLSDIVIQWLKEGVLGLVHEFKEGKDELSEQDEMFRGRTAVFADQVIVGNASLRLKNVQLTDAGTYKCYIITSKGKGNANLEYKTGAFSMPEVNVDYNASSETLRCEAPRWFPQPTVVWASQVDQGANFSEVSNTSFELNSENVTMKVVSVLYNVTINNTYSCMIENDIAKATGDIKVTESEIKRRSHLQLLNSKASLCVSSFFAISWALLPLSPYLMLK


What was measured:
[1] = target: T1, cynomolgus monkey VTCN1 protein; assay: BLI (OCTET Red), antibody on Protein A biosensor, cyno VTCN1
[2] = target: T2, recombinant human VTCN1-his protein; assay: BLI (OCTET Red), antibody on Protein A biosensor, recombinant VTCN1-his in solution
[3] = target: T3, human VTCN1 expressed on cells …; assay: flow cytometry on live 293-VTCN1 and MX-1 cells, 0.05-10 ug/ml

Row | Kd [1] [nM] | Kd [2] [nM] | binding result [3] | Binder
1 | 14 | 12 |  | 3G10 (antibody, V domains shown, Recombinant mouse antibody made in CHO cells) VH: QIQLKESGPGLVQPSQSLSITCTVSGFSLTSYGVHWVRQSPGKGLEWLGVIWSGGYTDYNSAFISRLSISKDNSKSQVFFKMNSLQADDTAIYYCARDITTIVEGFAYWGQGTLVTVSA VL: IIVMTQSPKSMSMSVGERITLNCKASENVGTYVSWYQQKPEQSPKLLIYGASNRYTGVPDHFTGSGSATDFTLTISSVQAEDLADYHCGQTYSYPFTFGSGTKLEIK
2 | 19 | 8 |  | 6E2 (antibody, V domains shown, Recombinant mouse antibody made in CHO cells) VH: QIQLQESGPGLVQPSQSLSITCTVSGFSLTSYGVQWVRQSPGKGLEWLGVIWSGGSTDYNAAFISRLSISKDNSKSQVFFKMNSLQADDTAIYYCARDISTIVEGFAHWGQGTLVTVSS VL: NIVMTQSPKSMSMSVGERVTLSCKASEKVGTYVSWYQQKPEQSPKLLIYGASNRYTGVPDRFTGSGSATDFTLTISSVQAEDLADYHCGQSYRYPFTFGSGTKLEIK
3 |  |  | binds | 7G9 (antibody, V domains shown, Recombinant mouse antibody made in CHO cells) VH: QVQMQESGPGLVQPSQSLSITCTVSGFSLTSYGVQWVRQSPGKGLQWLGVIWSSGSTDYNAAVISRLSISKDTSKSQVFFKMNSLQPDDTAIYYCARDITTIVEGFAYWGQGTLVTVSS VL: IIVMTQSPKSMSMSVGERVTLSCKASENVGTYVSWYQQKPEQSPKLLIYGASNRYTGVPDRFTGSGSATDFTLTISSVQAEDLADYHCGQSYSYPFTFGSGTKLEIK
4 |  |  | binds | 8G3 (antibody, V domains shown, Recombinant mouse antibody made in CHO cells) VH: QIQLQESGPGLVQPSQSLSITCTVSGFSLTSYGVHWVRQSPGKGLEWLGVIWSSGSTDYNAAFISRLSISKDNSRSQVFFKMNSLQPDDTAIYYCARDITTIVEGFAYWAQGTLVTVSA VL: NVVMTQSPKSMSMSVGERVTLICKASENVGTYVSWYQQKPEQSPKLLIYGASNRYTGVPDRFTGSGSATDFTLTISSVQAEDLADYHCGQTYSYPFAFGSGTKLEIK
5 |  |  | binds | 9H12 (antibody, V domains shown, Recombinant mouse antibody made in CHO cells) VH: QIQLQESGPGLVQPSQSLSITCTVSGFSLTSYGVQWVRQSPGKGLEWLGVIWSGGSTDYNAAFISRLSISKDNSKSQVFFKMNSLQADDTAIYYCARDITTIVEGFAHWGQGTLVTVSA VL: NIVMTQSPKSMSMSVGERVTLSCKASEKVGTYVSWYQQKPEQSPKLLIYGASNRYTGVPDRFTGSGSATDFTLTISSVQAEDLADYHCGQSYSYPFTFGSGTKLEIK
6 |  |  | binds | 9H7 (antibody, V domains shown, Recombinant mouse antibody made in CHO cells) VH: QVQLQESGPELVKPGASVKLSCKASGYSFTDYTMHWVKQSPGQGLEWIGWIYPGSGNTMYNDKFKGEATMTADKSSSTTYMQLSSLTSEDSAVYFCARGGDSIITVFPFTYWGQGTLVTVSA VL: not shown
7 | 2 | 6 |  | 3D11 (antibody, V domains shown, Recombinant mouse antibody made in CHO cells) VH: QVQLQQPGAELVKPGASVKLSCKASGYSFTSYWMNWVKQRPGRGLEWIGRIHPSDSETHYNQNFKSKATLTVDKSSSTAYIQLNSLTSEDSAVYYCARPYYFYGSSPYAMDYWGQGASVTVSS VL: DVVMTQTPLSLPVSLGDQASISCRSSQSIVHSNGNTYLEWYLQKPGQSPKLLIYKVSNRFSGVPDRFSGSGSGTDFTFKISRVEAEDLGVYYCFQGSHVPYTFGGGTKLEIK
8 | 12 | 5 |  | 7F10 (antibody, V domains shown, Recombinant mouse antibody made in CHO cells) VH: QVQLQQSGPGLVQPSQSLSITCTVSGFSLTSYGIHWVRQSPGKGLEWLGVIWSSGSTDYNAAFISRLSISKDNSKSQVFFKMNSLQSDDTAIHYCARDITTIAEGFAYWGQGTLVTVSA VL: NIVMTQSPKSMSMSVGERVTLSCKASENVGTYVSWYQQKPEQSPKLLIYGASNRYTGVPDRFTGSGSATDFTLTISSVQAEDLADYHCGQSYSYPFTFGSGTKLEIK
9 | 16 | 14 |  | 4C6 (antibody, V domains shown, Recombinant mouse antibody made in CHO cells) VH: QMQLQESGPGLVQPSQSLSITCTVSGFSLTSYGIHWVRQSPGKGLEWLGVIWSSGSTDYNAAFISRLSISKDNSKSQVFFKMNSLQSDDTAIHYCARDITTIAEGFAYWGQGTLVTVSS VL: NIVMTQSPKSMSMSVGERVTLSCKASENVGTYVSWYQQKPEQSPKLLIYGASNRYTGVPDRFTGSGSATDFTLTISSVQAEDLADYHCGQSYSYPFTFGSGTKLEIK
10 | 12 | 4 |  | 5A12 (antibody, V domains shown, Recombinant mouse antibody made in CHO cells) VH: QVQLQQSGPGLVQPSQSLSITCTVSGFSLTSYGVQWVRQSPGKGLEWLGVIWSSGSTDYNAAFISRLSINKDNSKSQVFFKMNSLQPDDTAIYYCARDITTIVEGFAYWGQGTLVTVSA VL: IIVMTQSPKSMSMSVGERVTLSCKASENVGTYVSWYQQKPEQSPKLLIYGASNRYTGVPDRFTGSGSATDFTLTISSVQAEDLADYHCGQSYSYPFTFGSGTKLEIK
11 | 7 | 2 |  | 6D9 (antibody, mouse IgG2a, V domains shown, also called 6D9-mIgG2a; murine VTCN1 antibody 6D9) VH: QIQLQQSGPGLVQPSQSLSITCTVSGFSLTSYGVQWIRQSPGKGLEWLGVIWSSGSTDYNAAFLSRLSFSKDNSKSQVFFQMNSLQADDSAIYYCARDVTTIVEGFAHWGQGTLVTVSA VL: NIVMTQSPKSMSMSVGERVTLSCKASEKVGTYVSWYQQKPEQSPKLLIYGASNRYTGVPDRFTGSGSATDFTLTISSVQVEDLADYHCGQTYSYPFTFGSGTKLEIK
12 |  |  | binds | 1F8 (antibody, V domains shown, Recombinant mouse antibody made in CHO cells; also called 1F8C6) VH: QMQLKESGPGLVQPSQSLSITCTVSGFSLTSYGVQWVRQFSGKGLEWLGVIWSSGSTDYNAAFISRLSISKDNSKSQVFFKMNSLQPDDTAMYYCARDITTIVEGFAYWGQGTLVTVSA VL: IIVMTQSPKSMSMSVGERVTLSCKASENVGTYVSWYQQKPEQSPKLLIYGASNRYTGVPDRFTGSGSATDFTLTISSVQAEDLADYHCGQSYSYPFTFGSGTKLEIKR
13 | 1 | 4 |  | 10D1 (antibody, V domains shown, Recombinant mouse antibody made in CHO cells) VH: QVQLQESGPELVKPGASVKLSCKASGYIFTDYTIHWLKQSPGQGLEWIGWIYPGSGHTHYNDKFKGKATMTADKSSTTAYMQLSSLTSEDSAVFFCARGGESITTVFPLAYWGQGTLVTVSA VL: DIVMSQSPSSLAVSVGEKVTMSCKSSQSLLYSSDQKNYLAWYQQKPGQSPKLLIYWASTWESGVPDRFIGSGSGTDFTLTVSSVKAEDLAVYYCHQYYSYPPTFGAGTKLEIK
